In the supplement of paper PMC5998384:

Experiments:
[1] = system: HeLa Kyoto; assay: solubility in G1/S (NP-40 vs SDS abundance) (log2 ratio); higher = more soluble; settings: cell cycle stage: G1/S
[2] = system: HeLa Kyoto; assay: melting temperature (median over replicates), in situ; higher = more thermally stable
[3] = system: HeLa Kyoto; assay: solubility change mitosis vs G1/S (difference of NP-40 vs SDS log2 ratios) (log2 ratio difference); higher = more soluble in mitosis
[4] = system: HeLa Kyoto; assay: thermal stability score vs G1/S (z-score of summed log2 fold changes over temperatures); higher = more thermally stable than in G1/S
[5] = cell cycle stage: early G1 (4.5 h after nocodazole release)
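Wherever melting temperature (median over replicates), in situ is given: HeLa Kyoto cells synchronized by double thymidine or nocodazole block, proteins quantified by TMT10plex mass spectrometry, three independent biological replicates.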
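Wherever solubility change mitosis vs G1/S (difference of NP-40 vs SDS log2 ratios) is given: synchronized HeLa Kyoto cells (double thymidine block for G1/S, nocodazole release for mitosis), protein amounts in NP-40 versus SDS lysates quantified by mass spectrometry, three biological replicates.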
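Wherever solubility in G1/S (NP-40 vs SDS abundance) is given: HeLa Kyoto cells arrested at G1/S by double thymidine block, proteins quantified by TMT10plex mass spectrometry in mild NP-40 versus SDS extracts, three biological replicates.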
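Wherever thermal stability score vs G1/S (z-score of summed log2 fold changes over temperatures) is given: synchronized HeLa Kyoto cells, proteins quantified by TMT10plex mass spectrometry, three biological replicates, mitosis taken 0.5 h after nocodazole release, G1/S directly after double thymidine block.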

Chain of HSPA9 (chain, as listed by the source): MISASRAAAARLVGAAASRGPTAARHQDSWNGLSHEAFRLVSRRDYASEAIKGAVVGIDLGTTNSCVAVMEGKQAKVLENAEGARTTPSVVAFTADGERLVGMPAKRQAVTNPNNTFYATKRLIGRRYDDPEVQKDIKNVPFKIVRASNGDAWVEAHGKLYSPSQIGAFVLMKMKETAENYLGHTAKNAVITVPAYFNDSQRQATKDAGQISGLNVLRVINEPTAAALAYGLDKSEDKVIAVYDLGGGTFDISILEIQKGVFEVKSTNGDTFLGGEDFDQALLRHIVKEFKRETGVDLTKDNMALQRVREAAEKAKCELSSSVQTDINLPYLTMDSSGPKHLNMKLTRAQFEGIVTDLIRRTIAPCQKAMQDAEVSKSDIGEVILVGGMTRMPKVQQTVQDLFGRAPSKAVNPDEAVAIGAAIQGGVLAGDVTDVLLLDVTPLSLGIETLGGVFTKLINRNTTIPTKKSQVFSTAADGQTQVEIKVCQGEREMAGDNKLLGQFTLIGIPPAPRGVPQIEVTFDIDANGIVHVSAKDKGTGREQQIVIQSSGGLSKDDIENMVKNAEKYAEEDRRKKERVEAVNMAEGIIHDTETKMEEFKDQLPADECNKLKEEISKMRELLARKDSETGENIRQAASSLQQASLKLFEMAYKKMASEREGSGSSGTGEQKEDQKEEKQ

Row | Substance | solubility in G1/S (log2) [1] | melting temperature ([2]; cell cycle stage: G1/S) | solubility change mitosis (log2) [3] | thermal stability score [4, 5] | thermal stability score ([4]; cell cycle stage: mitosis) | melting temperature ([2]; cell cycle stage: mitosis)
1 | MADLSLADALTEPSPDIEGEIKRDFIATLEAEAFDDVVGETVGKTDYIPLLDVDEKTGNSESKKKPCSETSQIEDTPSSKPTLLANGGHGVEGSDTTGSPTEFLEEKMAYQEYPNSQNWPEDTNFCFQPEQVVDPIQTDPFKMYHDDDLADLVFPSSATADTSIFAGQNDPLKDSYGMSPCNTAVVPQGWSVEALNSPHSESFVSPEAVAEPPQPTAVPLELAKEIEMASEERPPAQALEIMMGLKTTDMAPSKETEMALAKDMALATKTEVALAKDMESPTKLDVTLAKDMQPSMESDMALVKDMELPTEKEVALVKDVRWPTETDVSSAKNVVLPTETEVAPAKDVTLLKETERASPIKMDLAPSKDMGPPKENKKETERASPIKMDLAPSKDMGPPKENKIVPAKDLVLLSEIEVAQANDIISSTEISSAEKVALSSETEVALARDMTLPPETNVILTKDKALPLEAEVAPVKDMAQLPETEIAPAKDVAPSTVKEVGLLKDMSPLSETEMALGKDVTPPPETEVVLIKNVCLPPEMEVALTEDQVPALKTEAPLAKDGVLTLANNVTPAKDVPPLSETEATPVPIKDMEIAQTQKGISEDSHLESLQDVGQSAAPTFMISPETVTGTGKKCSLPAEEDSVLEKLGERKPCNSQPSELSSETSGIARPEEGRPVVSGTGNDITTPPNKELPPSPEKKTKPLATTQPAKTSTSKAKTQPTSLPKQPAPTTIGGLNKKPMSLASGLVPAAPPKRPAVASARPSILPSKDVKPKPIADAKAPEKRASPSKPASAPASRSGSKSTQTVAKTTTAAAVASTGPSSRSPSTLLPKKPTAIKTEGKPAEVKKMTAKSVPADLSRPKSTSTSSMKKTTTLSGTAPAAGVVPSRVKATPMPSRPSTTPFIDKKPTSAKPSSTTPRLSRLATNTSAPDLKNVRSKVGSTENIKHQPGGGRAKVEKKTEAAATTRKPESNAVTKTAGPIASAQKQPAGKVQIVSKKVSYSHIQSKCGSKDNIKHVPGGGNVQIQNKKVDISKVSSKCGSKANIKHKPGGGDVKIESQKLNFKEKAQAKVGSLDNVGHLPAGGAVKTEGGGSEAPLCPGPPAGEEPAISEAAPEAGAPTSASGLNGHPTLSGGGDQREAQTLDSQIQETSI [MAP4] | 0.265 | 59 °C | -0.0455 | -3.19 | -3.41 | 
2 | METQLQSIFEEVVKTEVIEEAFPGMFMDTPEDEKTKLISCLGAFRQFWGGLSQESHEQCIQWIVKFIHGQHSPKRISFLYDCLAMAVETGLLPPRLVCESLINSDTLEWERTQLWALTFKLVRKIIGGVDYKGVRDLLKVILEKILTIPNTVSSAVVQQLLAAREVIAYILERNACLLPAYFAVTEIRKLYPEGKLPHWLLGNLVSDFVDTFRPTARINSICGRCSLLPVVNNSGAICNSWKLDPATLRFPLKGLLPYDKDLFEPQTALLRYVLEQPYSRDMVCNMLGLNKQHKQRCPVLEDQLVDLVVYAMERSETEEKFDDGGTSQLLWQHLSSQLIFFVLFQFASFPHMVLSLHQKLAGRGLIKGRDHLMWVLLQFISGSIQKNALADFLPVMKLFDLLYPEKEYIPVPDINKPQSTHAFAMTCIWIHLNRKAQNDNSKLQIPIPHSLRLHHEFLQQSLRNKSLQMNDYKIALLCNAYSTNSECFTLPMGALVETIYGNGIMRIPLPGTNCMASGSITPLPMNLLDSLTVHAKMSLIHSIATRVIKLAHAKSSVALAPALVETYSRLLVYMEIESLGIKGFISQLLPTVFKSHAWGILHTLLEMFSYRMHHIQPHYRVQLLSHLHTLAAVAQTNQNQLHLCVESTALRLITALGSSEVQPQFTRFLSDPKTVLSAESEELNRALILTLARATHVTDFFTGSDSIQGTWCKDILQTIMSFTPHNWASHTLSCFPGPLQAFFKQNNVPQESRFNLKKNVEEEYRKWKSMSNENDIITHFSMQGSPPLFLCLLWKMLLETDHINQIGYRVLERIGARALVAHVRTFADFLVYEFSTSAGGQQLNKCIEILNDMVWKYNIVTLDRLILCLAMRSHEGNEAQVCYFIIQLLLLKPNDFRNRVSDFVKENSPEHWLQNDWHTKHMNYHKKYPEKLYFEGLAEQVDPPVQIQSPYLPIYFGNVCLRFLPVFDIVIHRFLELLPVSKSLETLLDHLGGLYKFHDRPVTYLYNTLHYYEMHLRDRAFLKRKLVHAIIGSLKDNRPQGWCLSDTYLKCAMNAREENPWVPDDTYYCRLIGRLVDTMAGKSPGPFPNCDWRFNEFPNPAAHALHVTCVELMALAVSGKEVGNALLNVVLKSQPLVPRENITAWMNAIGLIITALPEPYWIVLHDRIVSVISSPSLTSETEWVGYPFRLFDFTACHQSYSEMSCSYTLALAHAVWHHSSIGQLSLIPKFLTEVLLPIVKTEFQLLYVYHLVGPFLQRFQQERTRCMIEIGVAFYDMLLNVDQCSTHLNYMDPICDFLYHMKYMFTGDSVKEQVEKIICNLKPALKLRLRFITHISKMEPAAVPPQAMNSGSPAPQSNQVPVSLPVTQ [MED23] | -0.217 | 50.5 °C | -0.141 | 1.35 | 1.94 | 51.1 °C
3 | MRALRAGLTLASGAGLGAVVEGWRRRREDARAAPGLLGRLPVLPVAAAAELPPVPGGPRGPGELAKYGLPGLAQLKSRESYVLCYDPRTRGALWVVEQLRPERLRGDGDRRECDFREDDSVHAYHRATNADYRGSGFDRGHLAAAANHRWSQKAMDDTFYLSNVAPQVPHLNQNAWNNLEKYSRSLTRSYQNVYVCTGPLFLPRTEADGKSYVKYQVIGKNHVAVPTHFFKVLILEAAGGQIELRTYVMPNAPVDEAIPLERFLVPIESIERASGLLFVPNILARAGSLKAITAGSK [ENDOG] | 0.34 | 51.8 °C | 0.0884 | 1.54 | 0.994 | 
4 | HSPA9 | 0.447 | 53.1 °C | -0.0046 | 2.31 | -0.387 | 52.8 °C
5 | MDLMNGQASSVNIAATASEKSSSSESLSDKGSELKKSFDAVVFDVLKVTPEEYAGQITLMDVPVFKAIQPDELSSCGWNKKEKYSSAPNAVAFTRRFNHVSFWVVREILHAQTLKIRAEVLSHYIKTAKKLYELNNLHALMAVVSGLQSAPIFRLTKTWALLSRKDKTTFEKLEYVMSKEDNYKRLRDYISSLKMTPCIPYLGIYLSDLTYIDSAYPSTGSILENEQRSNLMNNILRIISDLQQSCEYDIPMLPHVQKYLNSVQYIEELQKFVEDDNYKLSLKIEPGTSTPRSAASREDLVGPEVGASPQSGRKSVAAEGALLPQTPPSPRNLIPHGHRKCHSLGYNFIHKMNTAEFKSATFPNAGPRHLLDDSVMEPHAPSRGQAESSTLSSGISIGSSDGSELSEETSWPAFERNRLYHSLGPVTRVARNGYRSHMKASSSAESEDLAVHLYPGAVTIQGVLRRKTLLKEGKKPTVASWTKYWAALCGTQLFYYAAKSLKATERKHFKSTSNKNVSVIGWMVMMADDPEHPDLFLLTDSEKGNSYKFQAGNRMNAMLWFKHLSAACQSNKQQVPTNLMTFE [RALGPS2] | 0.0658 | 51 °C | -0.165 | -0.455 | -0.819 | 50.5 °C
6 | MGTPQKDVIIKSDAPDTLLLEKHADYIASYGSKKDDYEYCMSEYLRMSGIYWGLTVMDLMGQLHRMNREEILAFIKSCQHECGGISASIGHDPHLLYTLSAVQILTLYDSINVIDVNKVVEYVKGLQKEDGSFAGDIWGEIDTRFSFCAVATLALLGKLDAINVEKAIEFVLSCMNFDGGFGCRPGSESHAGQIYCCTGFLAITSQLHQVNSDLLGWWLCERQLPSGGLNGRPEKLPDVCYSWWVLASLKIIGRLHWIDREKLRNFILACQDEETGGFADRPGDMVDPFHTLFGIAGLSLLGEEQIKPVNPVFCMPEEVLQRVNVQPELVS [RABGGTB] | 0.122 | 49.8 °C | -0.347 | -0.232 | 1.64 | 50.3 °C
7 | MAGIIKKQILKHLSRFTKNLSPDKINLSTLKGEGQLTNLELDEEVLQNVLELPTWLAITRVYCNRASIRIQWTKLKTHPICLCLDKVEVEMKTCEDPRPPNGQSPIALASGQSEYGFAEKVVEGMFIIVNSITIKIHSKAFHASFELWQLQGYSVNPNWQQSDLRLTRITDPCRGEVLTFKEITWQTLRIEADATDNGDQDPVTTPLRLITNQGRIQIALKRRTKDCNVISSKLMFLLDDLLWVLTDSQLKAMMKYAESLSEAMEKSAHQRKSLAPEPVQITPPAPSAQQSWAQAFGGSQGNSNSSSSRLSQYFEKFDVKESSYHLLISRLDLHICDDSQSREPGVSANRLMGGAMQLTFRKMAFDYYPFHWAGDSCKHWVRHCEAMETRGQWAQKLVMEFQSKMEKWHEETGLKPPWHLGVDSLFRRKADSLSSPRKNPLERSPSQGRQPAFQPPAWNRLRSSCMVVRVDDLDIHQVSTAGQPSKKPSTLLSCSRKLHNLPTQVSAIHIEFTEYYFPDNQELPVPCPNLYIQLNGLTFTMDPVSLLWGNLFCLDLYRSLEQFKAIYKLEDSSQKDEHLDIRLDAFWLKVSFPLEKRERAELHRPQALVFSASGMIATNTRHAPHCSCSDLQSLFRGFAAAEFFHSNYDHFPKVPGGFSLLHMLFLHHAFQMDSCLPQPNTLPPQRPKASWDLWSVHFTQISLDFEGTENFKGHTLNFVAPFPLSIWACLPLRWQQAQARKLLLASEGRLKPSASFGSPVQSEALAPDSMSHPRSKTEHDLKSLSGLTEVMEILKEGSSGMDNKGPLTELEDVADVHMLVHSPAHVRVRLDHYQYLALLRLKEVLQRLQEQLTKDTESMTGSPLQNQTACIGVLFPSAEVALLMHPAPGAVDADSAGSDSTSLVDSELSPSEDRELKSDASSDQGPASPEKVLEESSIENQDVSQERPHSNGELQDSGPLAQQLAGKGHEAVESLQAKKLSRTQASSSPAALKPPAGRETAVNGQGELIPLKNIEGELSSAIHMTKDATKEALHATMDLTKEAVSLTKDAFSLGRDRMTSTMHKMLSLPPAKEPMAKTDEGVAAPVSGGAARLRFFSMKRTVSQQSFDGVSLDSSGPEDRISVDSDGSDSFVMLLESESGPESVPPGSLSNVSDNAGVQGSPLVNNYGQGSPAANSSVSPSGEDLIFHPVSVLVLKVNEVSFGIEVRGEDLTVALQAEELTLQQLGTVGLWQFLHGQCPGTCFQESSTLKTGHIRPAVGLRFEVGPGAAVHSPLASQNGFLHLLLHGCDLELLTSVLSGLGPFLEDEEIPVVVPMQIELLNSSITLKDDIPPIYPTSPGPIPITLAMEHVVLKRSDDGVFHIGAAAQDKPSAEVLKSEKRQPPKEQVFLVPTGEVFEQQVKELPILQKELIETKQALANANQDKEKLLQEIRKYNPFFEL [UHRF1BP1] | -0.0773 | 54.1 °C | -0.154 | -1.63 | -1.87 | 53.5 °C
8 | MSLEQEEETQPGRLLGRRDAVPAFIEPNVRFWITERQSFIRRFLQWTELLDPTNVFISVESIENSRQLLCTNEDVSSPASADQRIQEAWKRSLATVHPDSSNLIPKLFRPAAFLPFMAPTVFLSMTPLKGIKSVILPQVFLCAYMAAFNSINGNRSYTCKPLERSLLMAGAVASSTFLGVIPQFVQMKYGLTGPWIKRLLPVIFLVQASGMNVYMSRSLESIKGIAVMDKEGNVLGHSRIAGTKAVRETLASRIVLFGTSALIPEVFTYFFKRTQYFRKNPGSLWILKLSCTVLAMGLMVPFSFSIFPQIGQIQYCSLEEKIQSPTEETEIFYHRGV [SFXN4] | -0.194 | 53.9 °C | -0.195 | 0.0593 | -1.77 | 54.8 °C
